Data: publication doi:10.1101/2022.12.22.521671 (bioRxiv, 2022)

T1: biotinylated IQN22 (HIV-1 HXB2 gp41 565-586 fused to …, chimera, not fully specified; biotin (position not given))
T1 chain: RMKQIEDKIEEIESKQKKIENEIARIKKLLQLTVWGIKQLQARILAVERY

T2: biotinylated IQN17 (HIV-1 HXB2 gp41 565-581 fused to …, chimera, not fully specified; biotin (position not given))
T2 chain: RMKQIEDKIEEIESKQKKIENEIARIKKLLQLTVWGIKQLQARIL

B1: D5 Fab (Fab, V domains shown)
VH: QVQLVQSGAEVRKPGASVKVSCKASGDTFSSYAISWVRQAPGQGLEWMGGIIPIFGTANYAQAFQGRVTITANESTSTAYMELSSLRSEDTAIYYCARDNPTLLGSDYWGAGTLVTVSS
VL: DIQMTQSPSTLSASIGDRVTITCRASEGIYHWLAWYQQKPGKAPKLLIYKASSLASGAPSRFSGSGSGTDFTLTISSLQPDDFATYYCQQYSNYPLTFGGGTKLEIK

How the values were obtained:
Assay in all cases: BLI
[1] = molecular target: biotinylated IQN22 (HIV-1 HXB2) (UniProt P04578)
[2] = molecular target: biotinylated IQN17 (HIV-1 HXB2) (UniProt P04578)
biotinylated IQN22 = molecular target: T1, biotinylated IQN22
biotinylated IQN17 = molecular target: T2, biotinylated IQN17

Molecule | Kd [1] [nM] | Kd [2] [nM] | Kd (biotinylated IQN22) [nM] | Kd (biotinylated IQN17) [nM]
PIE12 (peptide) | 2 | 3 | – | –
B1 | – | – | 5 | 14
